# Data: patent publication US20260139033A1 (PRANA THERAPIES, published 2026)
# Columns and labels:
# [1] = biological target: T1, IL-4R on human donor PBMC (B-cells) (human, UniProt P24394 26-825); assay: cell-based or functional assay
# [2] = biological target: T2, recombinant human TSLP (human, UniProt Q969D9 29-159); assay: cell-based or functional assay
# [3] = biological target: T2, recombinant human TSLP; assay: SPR (Biacore 3000, CM5 chip, 25 C): complex captured via protein A, TSLP as analyte, 1:1 fit; column 'TSLP binding(pM)'
# Procedure: (§1) SPR studies were carried out on a Biacore 3000 instrument with a CM5 chip at 25° C. The running buffer comprised 25 mM Hepes, pH 7.5, 150 mM NaCl, 0.5 mg/ml BSA, 0.005% P20. Antibodies were captured via protein A using approximately a 1/50 dilution of each antibody in the running buffer and a 2-minute contact time at a 10 μl/min flow rate. Protein A was immobilized on a CM5 chip via standard amine coupling chemistry in 10 mM acetate pH 4.5. Approximately 800 RU of each antibody was captured. The surfaces were regenerated via a 10 mM glycine pH 1.5 between cycles. Between assays the chip was regenerated with a 2-minute pulse of 100 mM Phosphoric acid. Prior to setting up multicycle kinetic analysis analyte concentration was determined spectrophotometrically using an extinction coefficient of 72,880 M⁻¹ cm⁻¹ for IL4R and 18450 M⁻¹ cm⁻¹ for the TSLP proteins respectively. Analyte samples were prepared by diluting stocks into running buffer to a final concentration of 500 nM for the IL-4R and 25 nM for TSLP followed by serially diluting with a 2-fold series with an association time of 2.5 minutes at a 50 μl/min flow rate. Dissociation data was collected for a period of 1600 seconds. Raw data was analyzed using the Scrubber2 (Biologic Software, AU) program using a double referencing procedure where compound signal is corrected to a blank surface and a buffer injection over the captured antibody surface. Kinetic data was analyzed by fitting to a simple 1:1 binding model. […] The candidates are further described in Table 3.
# [4] = biological target: T2, recombinant human TSLP; assay: SPR; column 'SPR (Biophysical binding): TSLP (pM)'
# Procedure: as §1
# [5] = biological target: T1, IL-4R on human donor PBMC (B-cells); assay: cell-based or functional assay; remark: listed apart in the source
"IC50, IL-4 biological assay (CD23 upregulation in PBMCs) [1]","IC50, PBMC assay in response to TSLP (TARC secretion) [2]",Kd [3],Kd [4],"IC50, inhibition of TSLP responses (TARC secretion) in human PBMCs [2]","IC50, CD23 upregulation on B cells of human PBMC in response to IL-4 (column 'Biological Assays: IL-4R (nM)') [5]",Binder
> 200 nM,2.3 nM,0.0208 nM,0.0208 nM,,,"Candidate-21: TSLP TRAP 1_Linker-GS4_Dupilumab-YTE (bispecific antibody, human IgG4 S228P, kappa, TRAP sits at the N-terminus of the heavy chain) heavy: GAAEGVQIQIIYFNLETVQVTWNASKYSRTNLTFHYRFNGDEAYDQCTNYLLQEGHTSGCLLDAEQRDDILYFSIRNGTHPVFTASRWMVYYLKPSSPKHVRFSWHQDAVTVTCSDLSYGDLLYEVQYRSPFDTEWQSKQENTCNVTIEGLDAEKCYSFWVRVKAMEDVYGPDTYPSDWSEVTCWQRGEIRDACAETPTPPKPKLSKGGSGGSGGSGGSGGSGGSGGSGGSGGSGGSGGSGGSGGSGGSGGSGGSGGSGGSGGSGGSESGYAQNGDLEDAELDDYSFSCYSQLEVNGSQHSLTCAFEDPDVNITNLEFEICGALVEVKCLNFRKLQEIYFIETKKFLLIGKSNICVKVGEKSLTCKKIDLTTIVKPEAPFDLSVVYREGANDFVVTFNTSHLQKKYVKVLMHDVAYRQEKDENKWTHVNLSSTKLTLLQRKLQPAAMYEIKVRSIPDHYFKGFWSEWSPSYYFRTPEINNSSGEMDGGGGSGGGGSGGGGSGGGGSEVQLVESGGGLEQPGGSLRLSCAGSGFTFRDYAMTWVRQAPGKGLEWVSSISGSGGNTYYADSVKGRFTISRDNSKNTLYLQMNSLRAEDTAVYYCAKDRLSITIRPRYYGLDVWGQGTTVTVSSASTKGPSVFPLAPCSRSTSESTAALGCLVKDYFPEPVTVSWNSGALTSGVHTFPAVLQSSGLYSLSSVVTVPSSSLGTKTYTCNVDHKPSNTKVDKRVESKYGPPCPPCPAPEFLGGPSVFLFPPKPKDTLYITREPEVTCVVVDVSQEDPEVQFNWYVDGVEVHNAKTKPREEQFNSTYRVVSVLTVLHQDWLNGKEYKCKVSNKGLPSSIEKTISKAKGQPREPQVYTLPPSQEEMTKNQVSLTCLVKGFYPSDIAVEWESNGQPENNYKTTPPVLDSDGSFFLYSRLTVDKSRWQEGNVFSCSVMHEALHNHYTQKSLSLSLG light: DIVMTQSPLSLPVTPGEPASISCRSSQSLLYSIGYNYLDWYLQKSGQSPQLLIYLGSNRASGVPDRFSGSGSGTDFTLKISRVEAEDVGFYYCMQALQTPYTFGQGTKLEIKRTVAAPSVFIFPPSDEQLKSGTASVVCLLNNFYPREAKVQWKVDNALQSGNSQESVTEQDSKDSTYSLSSTLTLSKADYEKHKVYACEVTHQGLSSPVTKSFNRGEC"
> 200 nM,0.43 nM,0.019 nM,0.019 nM,,,"Candidate-22: TSLP TRAP 2_Linker-GS4_Dupilumab-YTE (bispecific antibody, human IgG4 S228P, kappa, The chains here are built from the component entries; TRAP sits at the N-terminus of the heavy chain) heavy: ESGYAQNGDLEDAELDDYSFSCYSQLEVNGSQHSLTCAFEDPDVNITNLEFEICGALVEVKCLNFRKLQEIYFIETKKFLLIGKSNICVKVGEKSLTCKKIDLTTIVKPEAPFDLSVVYREGANDFVVTFNTSHLQKKYVKVLMHDVAYRQEKDENKWTHVNLSSTKLTLLQRKLQPAAMYEIKVRSIPDHYFKGFWSEWSPSYYFRTPEINNSSGEMDGGSGGSGGSGGSGGSGGSGGSGGSGGSGGSGGSGGSGGSGGSGGSGGSGGSGGSGGSGGSGAAEGVQIQIIYFNLETVQVTWNASKYSRTNLTFHYRFNGDEAYDQCTNYLLQEGHTSGCLLDAEQRDDILYFSIRNGTHPVFTASRWMVYYLKPSSPKHVRFSWHQDAVTVTCSDLSYGDLLYEVQYRSPFDTEWQSKQENTCNVTIEGLDAEKCYSFWVRVKAMEDVYGPDTYPSDWSEVTCWQRGEIRDACAETPTPPKPKLSKGGGGSGGGGSGGGGSGGGGSEVQLVESGGGLEQPGGSLRLSCAGSGFTFRDYAMTWVRQAPGKGLEWVSSISGSGGNTYYADSVKGRFTISRDNSKNTLYLQMNSLRAEDTAVYYCAKDRLSITIRPRYYGLDVWGQGTTVTVSSASTKGPSVFPLAPCSRSTSESTAALGCLVKDYFPEPVTVSWNSGALTSGVHTFPAVLQSSGLYSLSSVVTVPSSSLGTKTYTCNVDHKPSNTKVDKRVESKYGPPCPPCPAPEFLGGPSVFLFPPKPKDTLYITREPEVTCVVVDVSQEDPEVQFNWYVDGVEVHNAKTKPREEQFNSTYRVVSVLTVLHQDWLNGKEYKCKVSNKGLPSSIEKTISKAKGQPREPQVYTLPPSQEEMTKNQVSLTCLVKGFYPSDIAVEWESNGQPENNYKTTPPVLDSDGSFFLYSRLTVDKSRWQEGNVFSCSVMHEALHNHYTQKSLSLSLG light: DIVMTQSPLSLPVTPGEPASISCRSSQSLLYSIGYNYLDWYLQKSGQSPQLLIYLGSNRASGVPDRFSGSGSGTDFTLKISRVEAEDVGFYYCMQALQTPYTFGQGTKLEIKRTVAAPSVFIFPPSDEQLKSGTASVVCLLNNFYPREAKVQWKVDNALQSGNSQESVTEQDSKDSTYSLSSTLTLSKADYEKHKVYACEVTHQGLSSPVTKSFNRGEC"
,,0.0083 nM,0.0083 nM,7.8 nM,> 200 nM,"Candidate-26: Light chain C-terminal TRAP: Dupilumab-YTE_Linker-GS4_TSLP TRAP 2 [2 x TRAP 2] (bispecific antibody, human IgG4 S228P, kappa, The chains here are built from the component entries) heavy: EVQLVESGGGLEQPGGSLRLSCAGSGFTFRDYAMTWVRQAPGKGLEWVSSISGSGGNTYYADSVKGRFTISRDNSKNTLYLQMNSLRAEDTAVYYCAKDRLSITIRPRYYGLDVWGQGTTVTVSSASTKGPSVFPLAPCSRSTSESTAALGCLVKDYFPEPVTVSWNSGALTSGVHTFPAVLQSSGLYSLSSVVTVPSSSLGTKTYTCNVDHKPSNTKVDKRVESKYGPPCPPCPAPEFLGGPSVFLFPPKPKDTLYITREPEVTCVVVDVSQEDPEVQFNWYVDGVEVHNAKTKPREEQFNSTYRVVSVLTVLHQDWLNGKEYKCKVSNKGLPSSIEKTISKAKGQPREPQVYTLPPSQEEMTKNQVSLTCLVKGFYPSDIAVEWESNGQPENNYKTTPPVLDSDGSFFLYSRLTVDKSRWQEGNVFSCSVMHEALHNHYTQKSLSLSLG light: DIVMTQSPLSLPVTPGEPASISCRSSQSLLYSIGYNYLDWYLQKSGQSPQLLIYLGSNRASGVPDRFSGSGSGTDFTLKISRVEAEDVGFYYCMQALQTPYTFGQGTKLEIKRTVAAPSVFIFPPSDEQLKSGTASVVCLLNNFYPREAKVQWKVDNALQSGNSQESVTEQDSKDSTYSLSSTLTLSKADYEKHKVYACEVTHQGLSSPVTKSFNRGECGGGGSGGGGSGGGGSGGGGSESGYAQNGDLEDAELDDYSFSCYSQLEVNGSQHSLTCAFEDPDVNITNLEFEICGALVEVKCLNFRKLQEIYFIETKKFLLIGKSNICVKVGEKSLTCKKIDLTTIVKPEAPFDLSVVYREGANDFVVTFNTSHLQKKYVKVLMHDVAYRQEKDENKWTHVNLSSTKLTLLQRKLQPAAMYEIKVRSIPDHYFKGFWSEWSPSYYFRTPEINNSSGEMDGGSGGSGGSGGSGGSGGSGGSGGSGGSGGSGGSGGSGGSGGSGGSGGSGGSGGSGGSGGSGAAEGVQIQIIYFNLETVQVTWNASKYSRTNLTFHYRFNGDEAYDQCTNYLLQEGHTSGCLLDAEQRDDILYFSIRNGTHPVFTASRWMVYYLKPSSPKHVRFSWHQDAVTVTCSDLSYGDLLYEVQYRSPFDTEWQSKQENTCNVTIEGLDAEKCYSFWVRVKAMEDVYGPDTYPSDWSEVTCWQRGEIRDACAETPTPPKPKLSK"
